{
  "source": "patent US20090022687A1",
  "about": "“Novel Pharmaceuticals That Use Anti-HLA Antibodies” (Chugai Seiyaku Kabushiki Kaisha, priority 2005, published 2009)",
  "key": {"HLA-A on CD34+ cells": {"system": "HLA-A on CD34+ cells", "assay": "Two-color flow cytometry of a peripheral blood stem cell collection", "type": "binding, human", "details": "CD34+ cells in a peripheral blood stem cell collection, n=3"}, "HLA-A on myeloma cells": {"system": "HLA-A on myeloma cells", "assay": "HLA-A expression in BMMCs of MM patients (flow cytometry, FITC-labeled 2D7 mAb)", "type": "binding, human", "details": "BM samples of 22 MM patients, mean±SD", "experimental": "(§1) After cell gating (R1: CD38-positive MM cells; R2: myeloid cells; and R3: lymphocytes), each cell population was evaluated for HLA-A expression. (B) BMMCs derived from 22 MM patients were analyzed for HLA-A expression.\n(§2) Patients' MM cells were prepared as follows. First clinical disease stage classification and diagnosis of MM patients were performed according to the Durie and Salmon classification (Durie, B. CT, and S. E. Salmon. 1975. “A clinical staging system for multiple myeloma. Correlation of measured myeloma cell mass with presenting clinical features, response to treatment, and survival,” Cancer, 36:842-854). Bone marrow samples were collected from patients after obtaining informed consent upon approval by the ethics committee of The University of Tokushima. The bone marrow mononuclear cells (BMMCs) were separated by Ficoll-Hypaque (density of 1.077) centrifugation. Patient-derived MM cells were further purified from BMMCs using CD138 microbeads (Miltenyi Biotec, Auburn, Calif.).\n(§3) Cell surface expression analysis of HLA class I by flow cytometry was performed as follows using FITC-labeled 2D7 mAb or FITC-labeled anti-HLA-ABC common region mAb (Chemicon, San Diego, Calif.). The cells (5×10^5 cells) were washed twice with PBS, and then incubated on ice for 40 minutes with FITC-labeled 2D7 mAb or FITC-labeled anti-HLA-ABC common region mAb. MM patient-derived BMMCs were incubated on ice for 15 minutes with 2% γ globulin diluted in PBS, and stained with FITC-labeled 2D7 mAb and PE-labeled anti-CD38 mAb (BD Bioscience, San Jose, Calif.) for myeloma cell gating. Next, the cells were washed twice with PBS, and analyzed using an EPICS XL flow cytometer (Beckman Coulter, Japan). […] HLA class I expression levels were evaluated as GeoMFI using the CellQuest software (BID Biosciences).\n(§4) Next, HLA-A expression in BMMCs of MM patients was examined. […] After gating the cells according to their side-scattered light profile and CD38 expression, each of the cell populations comprising myeloma cells, myeloid cells, and lymphocytes was analyzed for HLA-A expression. […]"}, "HLA-A on myeloid cells": {"system": "HLA-A on myeloid cells", "assay": "HLA-A expression in BMMCs of MM patients (flow cytometry, FITC-labeled 2D7 mAb)", "type": "binding, human", "details": "BM samples of 22 MM patients, mean±SD", "experimental": "as §1, §2, §3, §4"}, "HLA-A on lymphocytes": {"system": "HLA-A on lymphocytes", "assay": "HLA-A expression in BMMCs of MM patients (flow cytometry, FITC-labeled 2D7 mAb)", "type": "binding, human", "details": "BM samples of 22 MM patients, mean±SD", "experimental": "as §1, §2, §3, §4"}, "IM-9 cells": {"system": "IM-9 cells", "assay": "Cytotoxicity assay (WST-8 cell viability)", "type": "cell-based, human", "details": "IM-9, 24 hours after cross-linking with the secondary antibody", "experimental": "(§5) In other experiments, cells were cultured with 2D7-DB in the absence of the goat anti-mouse IgG antibody. Cell viabilities were determined by WST-8 assays or Trypan Blue exclusion assays. […] (B) The morphological observations of myeloma cells after 2D7-DB treatment are shown. Purified MM cells derived from patient No. 18 were cultured for 24 hours in the presence (1 μg/mL) or absence of 2D7-DB. Next, cells were fixed on glass slides and stained with light Giemsa (original magnification,×1000). (C) A graph indicating the cytotoxic activity of 2D7-DB on the patients' MM cells is shown. CD138-positive MM cells were purified from six patients, and the cells were cultured for 24 hours with 2D7-DB (0.1 or 1μg/mL). Cell viabilities were determined by Trypan Blue exclusion assays.\nCytotoxicity assays were performed as follows. […] Cell viabilities were measured by WST-8 assays (Kishida Chemical, Osaka, Japan) for the cell lines, and by Trypan Blue dye exclusion assays for patient-derived primary MM cells. Apoptosis induction was assessed by flow cytometric analysis with Annexin V and PI staining (MEBCYTO apoptosis kit MBL, Nagoya, Japan).\nNext, cytotoxic effects of single chain Fv-type 2D7 mAb (2D7-DB) on MM cell lines and patient-derived MM cells were assessed. […]"}, "patient-derived MM cells": {"system": "patient-derived MM cells", "assay": "Cytotoxicity assay (Trypan Blue dye exclusion), patient-derived primary MM cells", "type": "cell-based, human", "details": "newly isolated MM cells, in the presence of a secondary antibody", "experimental": "as §5, with “In other experiments, cells were cultured with 2D7-DB in the absence of the goat anti-mouse IgG antibody.” left out\nPatients' MM cells were prepared as follows. First clinical disease stage classification and diagnosis of MM patients were performed according to the Durie and Salmon classification (Durie, B. CT, and S. E. Salmon. 1975. “A clinical staging system for multiple myeloma. Correlation of measured myeloma cell mass with presenting clinical features, response to treatment, and survival,” Cancer, 36:842-854). […]\nCytotoxicity assays were performed as follows. […] Cell viabilities were measured by WST-8 assays (Kishida Chemical, Osaka, Japan) for the cell lines, and by Trypan Blue dye exclusion assays for patient-derived primary MM cells. […]"}},
  "data": [
    {"molecule": "2D7: monoclonal antibody obtained by immunizing human myeloma cells; recognizes HLA class I (HLA-A) (antibody, V domains shown) VH: QVQLQQSGPELVKPGASVKMSCKASGYTFTDYFIHWVKQRPGQGLEWIGWIFPGDDTTDYNEKFRGKTTLTADKSSSTAYILLSSLTSEDSAMYFCVRSDDFDYWGQGTTLTVSS VL: QIVLTQSPAIMSASPGEKVTITCSASSSVSYMHWFQQKPGTFPKLWIYSTSNLASGVPTRFSGSGSGTSYSLTISRMEAEDAATYYCQQRTSYPPTFGSGTKLEIK", "values": [
      {"measurement": "HLA-A expression, GeoMFI", "setting": "HLA-A on CD34+ cells", "result": "109±16"},
      {"measurement": "HLA expression level, geometric mean fluorescence intensity (GeoMFI)", "setting": "HLA-A on myeloma cells", "result": "1309±1130"},
      {"measurement": "HLA expression level, geometric mean fluorescence intensity (GeoMFI)", "setting": "HLA-A on myeloid cells", "result": "201±209"},
      {"measurement": "HLA expression level, geometric mean fluorescence intensity (GeoMFI)", "setting": "HLA-A on lymphocytes", "result": "91±44"},
      {"measurement": "inhibition of cell viability", "setting": "IM-9 cells", "result": "more efficiently than W6/32, B9.12.1, and JOAN-1"},
      {"measurement": "cell viability", "setting": "patient-derived MM cells", "result": "inhibited"}
    ]}
  ]
}
